# The supplement of paper PMC10567573
# B1: SASS6 (parent)
# chain: QKELQDVGQSLRIKEQEVCKLQEQ
# Variants of: B1
# Test: protein stability index of a GFP-peptide fusion (GPS, HEK-293T) (PSI 1-6); higher = more stable
# Conditions: c terminus: a fixed tail appended
# 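Further: lentivirally expressed fusions sorted by FACS into six bins by GFP to DsRed ratio, PSI derived from sequencing read proportions per bin multiplied by bin number.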
row,Variant,protein stability index
1,QKELQDVGQSLRIKRQEVCKLQEQ [E15R],4.21
2,QKELQDVGQSLRIKMQEVCKLQEQ [E15M],4.54
3,QKELQDVGQSLRIKFQEVCKLQEQ [E15F],3.24
4,QKELQDVGQSLRIKSQEVCKLQEQ [E15S],4.85
5,QKELQDVGQSLRIKKQEVCKLQEQ [E15K],3.7
6,QKELQDVGQSLRIKWQEVCKLQEQ [E15W],2.06
7,QKELQDVGQSLRIKTQEVCKLQEQ [E15T],4.56
8,QKELQDVGQSLRIKGQEVCKLQEQ [E15G],5.1
9,QKELQDVGQSLRIKQQEVCKLQEQ [E15Q],4.66
10,QKELQDVGQSLRIKPQEVCKLQEQ [E15P],4.66
11,QKELQDVGQSLRIKAQEVCKLQEQ [E15A],5.01
12,QKELQDVGQSLRIKVQEVCKLQEQ [E15V],3.54
13,QKELQDVGQSLRIKLQEVCKLQEQ [E15L],4.15
14,QKELQDVGQSLRIKNQEVCKLQEQ [E15N],3.15
15,QKELQDVGQSLRIKCQEVCKLQEQ [E15C],4.11
16,QKELQDVGQSLRIKIQEVCKLQEQ [E15I],2.8
17,QKELQDVGQSLRIKHQEVCKLQEQ [E15H],4.49
18,QKELQDVGQSLRIKDQEVCKLQEQ [E15D],5
19,QKELQDVGQSLRIDEQEVCKLQEQ [K14D],5.63
20,QKELQDVGQSLRIFEQEVCKLQEQ [K14F],4.38
21,QKELQDVGQSLRIYEQEVCKLQEQ [K14Y],4.68
22,QKELQDVGQSLRIQEQEVCKLQEQ [K14Q],4.9
23,QKELQDVGQSLRIVEQEVCKLQEQ [K14V],4.94
24,QKELQDVGQSLRICEQEVCKLQEQ [K14C],5.54

row,Variant,protein stability index
1,QKELQDVGQSLRIHEQEVCKLQEQ [K14H],4.78
2,QKELQDVGQSLRIEEQEVCKLQEQ [K14E],5.49
3,QKELQDVGQSLRITEQEVCKLQEQ [K14T],5.75
4,QKELQDVGQSLRIREQEVCKLQEQ [K14R],5.19
5,QKELQDVGQSLRIMEQEVCKLQEQ [K14M],4.47
6,QKELQDVGQSLRIGEQEVCKLQEQ [K14G],5.46
7,QKELQDVGQSLRIIEQEVCKLQEQ [K14I],4.43
8,QKELQDVGQSLRIPEQEVCKLQEQ [K14P],4.73
9,QKELQDVGQSLRISEQEVCKLQEQ [K14S],5.33
10,QKELQDVGQSLRINEQEVCKLQEQ [K14N],4.6
11,QKELQDVGQSLRIAEQEVCKLQEQ [K14A],5.04
12,QKELQDVGQSLSIKEQEVCKLQEQ [R12S],5.34
13,QKELQDVGQSLPIKEQEVCKLQEQ [R12P],5.39
14,QKELQDVGQSLLIKEQEVCKLQEQ [R12L],5.33
15,QKELQDVGQSLTIKEQEVCKLQEQ [R12T],3.75
16,QKELQDVGQSLQIKEQEVCKLQEQ [R12Q],5.75
17,QKELQDVGQSLYIKEQEVCKLQEQ [R12Y],5.28
18,QKELQDVGQSLNIKEQEVCKLQEQ [R12N],5.19
19,QKELQDVGQSLWIKEQEVCKLQEQ [R12W],4.84
20,QKELQDVGQSLRIKEQEHCKLQEQ [V18H],5.11
21,QKELQDVGQSLRIKEQEMCKLQEQ [V18M],5.46
22,QKELQDVGQSLRIKEQEQCKLQEQ [V18Q],5.54
23,QKELQDVGQSLRIKEQELCKLQEQ [V18L],5.25
24,QKELQDVGQSLRIKEQEPCKLQEQ [V18P],3.51

row,Variant,protein stability index
1,QKELQDVGQSLRIKEQEDCKLQEQ [V18D],5.94
2,QKELQDVGQSLRIKEQENCKLQEQ [V18N],5.19
3,QKELQDVGQSLRIKEQEACKLQEQ [V18A],4.16
4,QKELQDVGQSLRIKEQEKCKLQEQ [V18K],5.32
5,QKELQDVGQSLRIKEQETCKLQEQ [V18T],4.74
6,QKELQDVGQSLRIKEQEECKLQEQ [V18E],5.95
7,QKELQDVGQSLRIKEQEGCKLQEQ [V18G],4.49
8,QKELQDVGQSLRIKEQESCKLQEQ [V18S],5.35
9,QKELQDVGQSLRIKEQERCKLQEQ [V18R],5.62
10,QKELQDVGQSLRIKEQEWCKLQEQ [V18W],4.28
11,QKELQDVGQSLRIKEQEICKLQEQ [V18I],4.75
12,QKELQDVGQSLRIKEQEFCKLQEQ [V18F],4.5
13,QKELQDVGQSLRIKEQEYCKLQEQ [V18Y],5.03
14,QKELQDVGQSLRIKEQTVCKLQEQ [E17T],4.95
15,QKELQDVGQSLRIKEQPVCKLQEQ [E17P],4.55
16,QKELQDVGQSLRIKEQNVCKLQEQ [E17N],4.33
17,QKELQDVGQSLRIKEQLVCKLQEQ [E17L],4.77
18,QKELQDVGQSLRIKEQHVCKLQEQ [E17H],5.02
19,QKELQDVGQSLRIKEQCVCKLQEQ [E17C],4.56
20,QKELQDVGQSLRIKEQGVCKLQEQ [E17G],4.96
21,QKELQDVGQSLRIKEQMVCKLQEQ [E17M],4.71
22,QKELQDVGQSLRIKEQYVCKLQEQ [E17Y],4.22
23,QKELQDVGQSLRIKEQQVCKLQEQ [E17Q],4.62
24,QKELQDVGQSLRIKEQAVCKLQEQ [E17A],4.66

row,Variant,protein stability index
1,QKELQDVGQSLRIKEQKVCKLQEQ [E17K],5.25
2,QKELQDVGQSLRIKEQDVCKLQEQ [E17D],5.55
3,QKELQDVGQSLRIKEQSVCKLQEQ [E17S],4.97
4,QKELQDVGQSLRIKEQRVCKLQEQ [E17R],4.54
5,QKELQDVGQSLRIKEQIVCKLQEQ [E17I],4.28
6,QKELQDVGQSLRIKEWEVCKLQEQ [Q16W],4.66
7,QKELQDVGQSLRIKEYEVCKLQEQ [Q16Y],4.68
8,QKELQDVGQSLRIKEVEVCKLQEQ [Q16V],5.21
9,QKELQDVGQSLRIKECEVCKLQEQ [Q16C],4.99
10,QKELQDVGQSLRIKEIEVCKLQEQ [Q16I],4.84
11,QKELQDVGQSLRIKEEEVCKLQEQ [Q16E],5.63
12,QKELQDVGQSLRIKESEVCKLQEQ [Q16S],5.56
13,QKELQDVGQSLRIKEDEVCKLQEQ [Q16D],5.43
14,QKELQDVGQSLRIKEAEVCKLQEQ [Q16A],5.12
15,QKELQDVGQSLRIKEHEVCKLQEQ [Q16H],5.13
16,QKELQDVGQSLRIKENEVCKLQEQ [Q16N],5.13
17,QKELQDVGQSLRIKEKEVCKLQEQ [Q16K],5.48
18,QKELQDVGQSLRIKETEVCKLQEQ [Q16T],5.28
19,QKELQDVGQSLRIKELEVCKLQEQ [Q16L],4.71
20,QKELQDVGQSLRIKEGEVCKLQEQ [Q16G],5.83
21,QKELQDVGQSLRIKEMEVCKLQEQ [Q16M],4.96
22,QKELQDVGQSLRIKEQEVAKLQEQ [C19A],4.79
